Data as given in patent publication US20120045785A1.

Experiments:
[1] = target: HtubA/B dimer (hybrid bacterial-bovine tubulin heterodimer) (Prosthecobacter dejongeii); test: cell-based or functional assay
eukaryotic microtubules = test: cell-based or functional assay

Chain of HtubA/B dimer (hybrid bacterial-bovine tubulin heterodimer) (Prosthecobacter dejongeii) (chain, as listed by the source, chain 1 of 2): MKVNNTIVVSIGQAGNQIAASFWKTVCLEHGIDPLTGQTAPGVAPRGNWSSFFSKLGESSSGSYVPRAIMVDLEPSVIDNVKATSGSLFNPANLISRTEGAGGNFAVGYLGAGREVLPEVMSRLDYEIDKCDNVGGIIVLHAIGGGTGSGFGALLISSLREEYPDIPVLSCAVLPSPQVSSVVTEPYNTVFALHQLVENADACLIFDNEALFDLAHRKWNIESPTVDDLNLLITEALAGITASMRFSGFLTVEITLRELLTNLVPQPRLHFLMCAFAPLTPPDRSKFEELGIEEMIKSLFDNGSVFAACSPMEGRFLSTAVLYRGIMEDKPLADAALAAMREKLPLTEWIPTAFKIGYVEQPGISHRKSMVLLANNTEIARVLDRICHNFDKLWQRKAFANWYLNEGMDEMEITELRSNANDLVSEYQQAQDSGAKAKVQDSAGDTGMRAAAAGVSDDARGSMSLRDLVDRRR
Chain of HtubA/B dimer (hybrid bacterial-bovine tubulin heterodimer) (Prosthecobacter dejongeii) (chain, as listed by the source, chain 2 of 2): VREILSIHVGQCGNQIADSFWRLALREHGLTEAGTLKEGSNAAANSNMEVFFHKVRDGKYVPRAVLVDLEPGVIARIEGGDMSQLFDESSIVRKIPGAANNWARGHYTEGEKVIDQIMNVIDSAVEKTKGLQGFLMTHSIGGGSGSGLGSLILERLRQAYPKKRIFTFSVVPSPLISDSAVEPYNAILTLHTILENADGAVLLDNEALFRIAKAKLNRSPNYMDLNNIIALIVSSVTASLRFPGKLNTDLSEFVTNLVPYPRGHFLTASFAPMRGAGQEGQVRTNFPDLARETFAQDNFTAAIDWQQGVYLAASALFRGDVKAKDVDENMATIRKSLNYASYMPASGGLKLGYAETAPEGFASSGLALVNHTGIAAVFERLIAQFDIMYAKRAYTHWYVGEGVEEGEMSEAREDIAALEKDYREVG

rate of ATP binding (MANT-ATP, stopped-flow) [1]: 265 s⁻¹ | rate of ATP binding (MANT-ATP, stopped-flow) (eukaryotic microtubules): 25 to 30 s⁻¹
Substance: Eg5 (a kinesin-5) motor domain (enzyme)
